Measurements from article PMC3618048, “A Novel Alkaliphilic Bacillus Esterase Belongs to the 13th Bacterial Lipolytic Enzyme Family” (PLoS ONE, 2013).

Experiments:
[1] = biological target: esterase EstOF4 from Bacillus pseudofirmus OF4 (Bacillus pseudofirmus OF4); test: SEC; Superdex200 10/30 column calibrated with cytochrome C, carbonic anhydrase, bovine serum albumin and alcohol dehydrogenase; native molecular weight of purified EstOF4
[2] = substrate: CCCCCCCCCCCC(=O)Oc1ccc([N+](=O)[O-])cc1; test: purified protein; format: biochemical, Alkalihalophilus pseudofirmus; settings: 50 mM Tris-HCl pH 8.5, 50 °C
[3] = substrate: CCCCCCCC(=O)Oc1ccc([N+](=O)[O-])cc1; test: purified protein; format: biochemical, Alkalihalophilus pseudofirmus; settings: 50 mM Tris-HCl pH 8.5, 50 °C
[4] = substrate: CCCCCCCCCC(=O)Oc1ccc([N+](=O)[O-])cc1; test: purified protein; format: biochemical, Alkalihalophilus pseudofirmus; settings: 50 mM Tris-HCl pH 8.5, 50 °C
[5] = substrate: CCCC(=O)Oc1ccc([N+](=O)[O-])cc1; test: purified protein; format: biochemical, Alkalihalophilus pseudofirmus; settings: 50 mM Tris-HCl pH 8.5, 50 °C
[6] = substrate: CC(=O)Oc1ccc([N+](=O)[O-])cc1; test: purified protein; format: biochemical, Alkalihalophilus pseudofirmus; settings: 50 mM Tris-HCl pH 8.5, 50 °C
[7] = substrate: CCC(=O)Oc1ccc([N+](=O)[O-])cc1; test: purified protein; format: biochemical, Alkalihalophilus pseudofirmus; settings: 50 mM Tris-HCl pH 8.5, 50 °C
[8] = substrate: CCCCCC(=O)Oc1ccc([N+](=O)[O-])cc1; test: purified protein; format: biochemical, Alkalihalophilus pseudofirmus; settings: 50 mM Tris-HCl pH 8.5, 50 °C

Molecule: esterase EstOF4 from Bacillus pseudofirmus OF4 (enzyme)
- stoichiometry N [1]: 2

B1: EstOF4 (Alkalihalophilus pseudofirmus OF4) (protein)
chain: MKVVAPKPFTFEGGDRAVLLLHGFTGTTADVRMIGRHLQKEGYTCHAPLYKGHGVPPEELVHTGPEDWWKDVEAGYNYLKEKGHEEIAVCGLSLGGVFSLKIGYTLPVKGIVPMCAPVRPKTEDAMYKGVLAYAREYKKREQKSDDVINQEMEAFKPMGTLSALGELIQDVHNHLDHIYSPTFVVQARNDEMIDVESANIIHDQIESDEKSLKWYEESGHVITLDKEKEQLHEDILQFLEGLDWTV
notes: full-length ORF (246 aa, 741 bp, no signal peptide), pET-28a NdeI/BamHI, N-terminal His tag, E. coli BL21(DE3); about 35 kDa SDS-PAGE, 64 kDa native dimer
- Km [2]: 42 ± 5 µM
- kcat [2]: 0.1 ± 0.0167 s⁻¹
- kcat/Km [2]: 1670 M⁻¹ s⁻¹
- Km [3]: 102 ± 3 µM
- kcat [3]: 1.75 ± 0.0333 s⁻¹
- kcat/Km [3]: 16700 M⁻¹ s⁻¹
- Km [4]: 173 ± 8 µM
- kcat [4]: 1.17 ± 0.0667 s⁻¹
- kcat/Km [4]: 6670 M⁻¹ s⁻¹
- Km [5]: 90 ± 9 µM
- kcat [5]: 3.65 ± 0.0667 s⁻¹
- kcat/Km [5]: 40000 M⁻¹ s⁻¹
- Km [6]: 37 ± 6 µM
- kcat [6]: 2.07 ± 0.0667 s⁻¹
- kcat/Km [6]: 56700 M⁻¹ s⁻¹
- Km [7]: 94 ± 9 µM
- kcat [7]: 3.52 ± 0.0667 s⁻¹
- kcat/Km [7]: 38300 M⁻¹ s⁻¹
- Km [8]: 60 ± 6 µM
- kcat [8]: 5.48 ± 0.1 s⁻¹
- kcat/Km [8]: 91700 M⁻¹ s⁻¹
